From the supplement of paper PMC12764529
± gives the half width of the 95% confidence interval.

test: folding stability dG unfold from chymotrypsin proteolysis; higher = more stable
How it was run: (§1)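 K50 was inferred by Bayesian fitting of sequencing counts obtained after protease digestion of designed mini-proteins. Unfolding free energy was derived by comparison with a sequence-predicted unfolded-state K50 and a shared folded-state K50, for each protease or both combined. The mini-proteins were under 80 residues, had no cysteine, were carried in a PA-tagged cDNA display construct, and were kept only if AlphaFold2 dimer inter-PAE exceeded 15.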

Row | Sequence | folding stability dG unfold [kcal/mol]
1 | SAGGSAGGSAGGKKKFGFLILVKNKDDEKLYLVEVPEELSLEEFLPDQEIDEEVIKKAIGSAGGSAGGSAGG [r17_412_TrMRF] | 0.665 ± 0.27
2 | SAGMVKVEVEYRPLPNGTVEVTVKLTITEPVPDEDGNLYYKTKTLTITVPTTSLSEAPKHVEEFIKKLSAGG [r19_218_TrMRF] | 4.03 ± 0.18
3 | SAGGSAVKIDPKTKVIEVKNPETGETYRISLPDVPPEDGVEVEVGDDKIIIKTPKGTKEIPIDKAKSAGGSA [r15_864_TrMRF] | 0.794 ± 0.18
4 | SENKPVTVLVNVTKNEDGTYTARVFVFDENGKLLAEEEVEAPLEKAVELVEALKKAYPNAKVVAVFTEGLSA [r9_374_TrMRF] | 4.81 ± 0.21
5 | SAGGSMVVTETLVETLTETLTFPDGTPVTVTVPVTVTVEVYLPEPPAPPPLPFSRLAEELGDPALVSAGGSA [r2_340_JUSTAS] | -0.661 ± 0.43
6 | SAGGSAGGANTVTIELPNGFRITLNDDGTITISYYDPETGELVKTVTIKLPPPPPVVVVHEDDKSAGGSAGG [r6_572_TrROS_Hall] | 3.39 ± 0.077
7 | SAGGSAGGSAGGSPVIIPDKGYLVVELEEEGLLVVYPLYPDGEIGPAFVRPVHPDVPVLSAGGSAGGSAGGS [r4_409_TrMRF] | 0.982 ± 0.039
8 | SAGGSAGGSASVKELAEKLAEPGQTVMVIKRDGKEYLIVMSDEEAEALRKLFPDMEIERVRLSAGGSAGGSA [r18_198_TrROS_Hall] | 1.93 ± 0.023
9 | SAGGMMKYVVRIKIYNENGEEVKEIEIEIEMSEEEVEELARKLAEKLAEELGVEVKIVEVEIEKLEPSAGGS [r16_140_TrROS_Hall] | 4.28 ± 0.2
10 | SAGGSAGGSKGKKITIILPPGMPPDAIKNWLAPLGINITIEPIPVVKPKRDPDDGEETYEPYGSAGGSAGGS [r12_80_TrROS] | 0.596 ± 0.24
11 | SAGMIKVEVYTLDPNGVLTKETYEIPLLPGTPIEEVVNELTEPGTGAVEIVEYNPPPPEIKIKIVRFPASAG [r5_227_TrMRF] | 2.94 ± 0.09
12 | SAGGSAGGSRLDATRALLDKLPPGSVTVTVYVNGKPVTFRFGSREEIEEAIEANPDVEVEIEPASAGGSAGG [r6_421_TrMRF] | 1.74 ± 0.16
13 | SAGEPDKPFTLTLKLLLPQSEDGTPLTPEEAEELAKEISTELGVEVEEIKITSNPEGNFVEIEVKLRGSAGG [r19_322_TrMRF] | 2.568 ± 0.015
14 | SAGKIEILDEKPYKDSITVVAKLPGTDEIIVLTYNPKTKTVEIKIFPPKGVKTIPVKAKDIEKALKEIASAG [r5_769_TrMRF] | 2.18 ± 0.16
15 | SAGGSAGGSAGGDDNDPGKIKIEVEVETYPIPNPNGEPFYITTHTIKIPNLDIEFMMIMPSAGGSAGGSAGG [r7_945_TrROS] | 1.45 ± 0.039
16 | SAGGSAGGSALIIVAPDGFIISIEWPNGKPRTIMMPPDEIDEILEDDGIKDIEIQKLPPGASAGGSAGGSAG [r3_141_TrROS] | 1.49 ± 0.036
17 | SAMIEVINATDPVTGKPYTITREGEGITVTDPETGKTYAATKDGDTITLDAGDTPLTLTPVSTVPESLLSAG [r14_208_JUSTAS] | 0.989 ± 0.16
18 | SAGGMKTLRLVVTVKVPKETGKPTVAEKLAEELAKLPGVEVVKVEVKRLENGTVVVTIEIKVPKELKPSAGG [r13_428_TrROS_Hall] | 3.36 ± 0.061
19 | SAGGSMTAEELEGLPAEEIAELLPSDYTVSFIPETGLLVVEAPTRVVLATYNPAEGTVTLLEVRDASAGGSA [r2_470_TrMRF] | 0.819 ± 0.07
20 | SAGGKNITIDDITFQPQRDNGKPRYYMEVKVELPNGNPIPITMPMDRMQNNGMSPKTFAKWIAKWLLSAGGS [r16_625_TrROS] | 1.5 ± 0.22
21 | MDVKIEPYRDPETGELYYKAVVKFKDGKEKLIEVKVPPNGKPIAKIYDPNGKLLAEKEFDSIEEALKEALAS [r1_478_TrMRF] | 4.24 ± 0.16

test: folding stability dG unfold (combined trypsin and chymotrypsin); higher = more stable
How it was run: as §1

Row | Sequence | folding stability dG unfold [kcal/mol]
22 | MTIVIDTPVPPEEAEALLRELAEELGYSPELMEVEERVFSEGEDGRPYVTLTVRLPGLGVTITLRLPPDAAS [r1_21_JUSTAS] | 3.66 ± 0.041
23 | SAGGSAGGSAGGSSSVSVDTDPETGLITVTTYSSSGGVTVTLYEKPPDGSLTPVSTTAVSAGGSAGGSAGGS [r4_106_JUSTAS] | 1.01 ± 0.046
24 | SAGGSAGGSAGGGNSLSSVRVVPVTLRTSEPLEQDGDPRPREFTETTVVRITETVPPGLSAGGSAGGSAGGS [r10_118_JUSTAS] | 0.356 ± 0.11
25 | SAGGSAGGSAGKWIMFDSPEDIEEKLKENGYRIKNIEPQKMGGGPHVYVPIEIKPPPEDKSAGGSAGGSAGG [r11_141_TrROS] | 0.155 ± 0.38
26 | SMKRVLILVPDPSVDKEELIEELKKKGFEDIEVVDSEEELKKLPENIDVVVIVRDGEVEVREVPPVEALKSA [r9_750_JUSTAS] | 0.706 ± 0.11
27 | SAMTTTTSVDPASGSSTVTTTEIIEKPAGKLPNGTKLPPVKVKKTTTTTYAPNGTKLSTTTTTTPVPLGSAG [r14_246_JUSTAS] | 0.874 ± 0.086
28 | SMEISFTDPAEAEALLAEVKAKLKAELPPNTVVPITVRDAAGNPTTHPITITPEPPEVVYFTETGGTVLLSA [r9_596_JUSTAS] | 1.76 ± 0.28
29 | SAGGSAGGMIEVESFPEIGYILVKAKSEKPEEIAKEVLEKFNVKEAVVFEDPEKPYVYILAKIDSAGGSAGG [r6_661_TrMRF] | 1.13 ± 0.21
30 | SAGGGMMWTVTFYPKETDTPITFPVPKEYITEIDEENNKIVIKKPPGETIEITDFNKIKSIEITPLPSAGGS [r8_111_JUSTAS] | 0.586 ± 0.15
31 | SAGGSAGGSMKITKTEEGVYLVEFTLPDGTPLVIPFPTDDPFLTEEQAVEIAKPIAAAFAAAGSAGGSAGGS [r12_642_TrMRF] | 1.22 ± 0.044
32 | SAGGSAGGSAGGSKIEIEEENGELKITIEVDGKKYEITIPKDMTLEEALKKALEKLPGLSAGGSAGGSAGGS [r4_191_TrROS_Hall] | 3.09 ± 0.18
33 | SAGGSAGGSAGEKVKLVITTTVTLPALDPEGGEFVGPVTFTETIVLDMNPEDAARLLAAASAGGSAGGSAGG [r17_283_TrMRF] | 2.23 ± 0.056
34 | SAGGSAGGSAPDIKILEPLEVDPDNGMITLKIELPGDGKVHEAIFFNPDGEPMMKFTIEIPKSAGGSAGGSA [r18_296_TrROS] | 0.299 ± 0.3
35 | SAGGSAPPNIEREEYEFYLRNPDGKELGPAKIEVIRDPGDPDRPILTIEWPNGEPMLFDADDIEPLSAGGSA [r15_954_TrROS] | 0.317 ± 0.19
36 | SAGGSAGGSAGMSTTPVAYKFTFTLPGGETLEREGTDVAALKEALKAEYGAVEITVTPVSSAGGSAGGSAGG [r17_508_JUSTAS] | 2.17 ± 0.1
37 | SAGPKITVKKLPDGSYLLLIEVPHEGGPSSRALIPYNPKTGKLELLEIETTHEEIKDKLIELAEELRKSSAG [r5_266_TrMRF] | 2.52 ± 0.13
38 | SAGGSAGGSAAVILPEGTLYFTLPDGSRAAATVDPATGTVHIRLYSPDGVPLAEADIPIDPSAGGSAGGSAG [r3_447_TrMRF] | 1.83 ± 0.07
39 | SAGMEKVKLTFKTEDGSEVEIEIVKNEDGSYFVKVKVDKENQEIYVFNADGELIEKIKVKSLEDALKALSAG [r5_757_TrROS_Hall] | 2.73 ± 0.12
40 | SAGGWIWIPPDDPEDAKEWARELVLMFANHMKEQGQEDMTVDVDIHVWDPKDGNWYRIPVEFRVKPDSAGGS [r8_163_TrROS] | 2.19 ± 0.13
41 | SAGGSAGGGTVLAEEEEPETGLVRRLVRLPDGTLVESVSLVDPETGEVLSEEVLRETPLPPPGLSAGGSAGG [r6_928_JUSTAS] | 1.29 ± 0.12
42 | SAGGSAIIVIEIEMGGKPVPIMIPIPPNMPPEDAREEIKELAKQEVRDPDGKPVRVKIEVIPPPPESAGGSA [r15_246_TrROS] | 0.626 ± 0.11

Row | Sequence | folding stability dG unfold [kcal/mol]
43 | SAGGSAGGSAGGKKKFGFLILVKNKDDEKLYLVEVPEELSLEEFLPDQEIDEEVIKKAIGSAGGSAGGSAGG [r17_412_TrMRF] | 0.724 ± 0.18
44 | SAGMVKVEVEYRPLPNGTVEVTVKLTITEPVPDEDGNLYYKTKTLTITVPTTSLSEAPKHVEEFIKKLSAGG [r19_218_TrMRF] | 3.37 ± 0.19
45 | SAGGSAVKIDPKTKVIEVKNPETGETYRISLPDVPPEDGVEVEVGDDKIIIKTPKGTKEIPIDKAKSAGGSA [r15_864_TrMRF] | 0.529 ± 0.25
46 | SENKPVTVLVNVTKNEDGTYTARVFVFDENGKLLAEEEVEAPLEKAVELVEALKKAYPNAKVVAVFTEGLSA [r9_374_TrMRF] | 4.67 ± 0.2
47 | SAGGSMVVTETLVETLTETLTFPDGTPVTVTVPVTVTVEVYLPEPPAPPPLPFSRLAEELGDPALVSAGGSA [r2_340_JUSTAS] | -0.623 ± 0.15
48 | SAGGSAGGANTVTIELPNGFRITLNDDGTITISYYDPETGELVKTVTIKLPPPPPVVVVHEDDKSAGGSAGG [r6_572_TrROS_Hall] | 3.35 ± 0.12
49 | SAGGSAGGSAGGSPVIIPDKGYLVVELEEEGLLVVYPLYPDGEIGPAFVRPVHPDVPVLSAGGSAGGSAGGS [r4_409_TrMRF] | 1.92 ± 0.072
50 | SAGGSAGGSASVKELAEKLAEPGQTVMVIKRDGKEYLIVMSDEEAEALRKLFPDMEIERVRLSAGGSAGGSA [r18_198_TrROS_Hall] | 1.81 ± 0.062
51 | SAGGMMKYVVRIKIYNENGEEVKEIEIEIEMSEEEVEELARKLAEKLAEELGVEVKIVEVEIEKLEPSAGGS [r16_140_TrROS_Hall] | 4.39 ± 0.25
52 | SAGGSAGGSKGKKITIILPPGMPPDAIKNWLAPLGINITIEPIPVVKPKRDPDDGEETYEPYGSAGGSAGGS [r12_80_TrROS] | 0.579 ± 0.2
53 | SAGMIKVEVYTLDPNGVLTKETYEIPLLPGTPIEEVVNELTEPGTGAVEIVEYNPPPPEIKIKIVRFPASAG [r5_227_TrMRF] | 2.49 ± 0.23
54 | SAGGSAGGSRLDATRALLDKLPPGSVTVTVYVNGKPVTFRFGSREEIEEAIEANPDVEVEIEPASAGGSAGG [r6_421_TrMRF] | 1.38 ± 0.098
55 | SAGEPDKPFTLTLKLLLPQSEDGTPLTPEEAEELAKEISTELGVEVEEIKITSNPEGNFVEIEVKLRGSAGG [r19_322_TrMRF] | 2.4 ± 0.059
56 | SAGKIEILDEKPYKDSITVVAKLPGTDEIIVLTYNPKTKTVEIKIFPPKGVKTIPVKAKDIEKALKEIASAG [r5_769_TrMRF] | 1.7 ± 0.25
57 | SAGGSAGGSAGGDDNDPGKIKIEVEVETYPIPNPNGEPFYITTHTIKIPNLDIEFMMIMPSAGGSAGGSAGG [r7_945_TrROS] | 1.7 ± 0.11
58 | SAGGSAGGSALIIVAPDGFIISIEWPNGKPRTIMMPPDEIDEILEDDGIKDIEIQKLPPGASAGGSAGGSAG [r3_141_TrROS] | 1.14 ± 0.074
59 | SAMIEVINATDPVTGKPYTITREGEGITVTDPETGKTYAATKDGDTITLDAGDTPLTLTPVSTVPESLLSAG [r14_208_JUSTAS] | 1.01 ± 0.1
60 | SAGGMKTLRLVVTVKVPKETGKPTVAEKLAEELAKLPGVEVVKVEVKRLENGTVVVTIEIKVPKELKPSAGG [r13_428_TrROS_Hall] | 3.18 ± 0.13
61 | SAGGSMTAEELEGLPAEEIAELLPSDYTVSFIPETGLLVVEAPTRVVLATYNPAEGTVTLLEVRDASAGGSA [r2_470_TrMRF] | 0.91 ± 0.12
62 | SAGGKNITIDDITFQPQRDNGKPRYYMEVKVELPNGNPIPITMPMDRMQNNGMSPKTFAKWIAKWLLSAGGS [r16_625_TrROS] | 1.3 ± 0.12
63 | MDVKIEPYRDPETGELYYKAVVKFKDGKEKLIEVKVPPNGKPIAKIYDPNGKLLAEKEFDSIEEALKEALAS [r1_478_TrMRF] | 3.91 ± 0.37
